PMC9482650, “Quantitative fragmentomics allow affinity mapping of interactomes” (Nature Communications, 2022)

T1: MPP7, Q5T2T1
T1 sequence (Q5T2T1 134-230, limits assumed, looked up): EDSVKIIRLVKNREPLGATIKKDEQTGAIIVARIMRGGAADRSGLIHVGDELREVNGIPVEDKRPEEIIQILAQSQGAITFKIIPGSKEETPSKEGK

T2: MPDZ_10, O75970
T2 sequence (O75970 1624-1722, limits assumed, looked up): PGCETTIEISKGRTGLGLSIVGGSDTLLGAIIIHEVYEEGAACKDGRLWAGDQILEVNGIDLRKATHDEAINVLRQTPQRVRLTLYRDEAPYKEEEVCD

T3: RAPGEF6, Q8TEU7
T3 sequence (Q8TEU7 525-625, limits assumed, looked up): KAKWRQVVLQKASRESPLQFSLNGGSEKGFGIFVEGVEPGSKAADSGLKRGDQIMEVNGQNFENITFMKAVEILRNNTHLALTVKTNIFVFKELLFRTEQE

T4: DFNB31_2, Q9P202
T4 sequence (Q9P202 274-371, limits assumed, looked up): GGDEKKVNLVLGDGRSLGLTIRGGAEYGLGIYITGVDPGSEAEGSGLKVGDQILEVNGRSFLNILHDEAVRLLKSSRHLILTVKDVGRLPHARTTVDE

T5: MPP6, Q9NZW5
T5 sequence (Q9NZW5 125-219, limits assumed, looked up): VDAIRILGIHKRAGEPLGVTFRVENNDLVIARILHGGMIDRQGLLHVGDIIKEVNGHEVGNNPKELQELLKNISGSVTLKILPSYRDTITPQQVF

T6: MPDZ_5, O75970
T6 sequence (O75970 695-796, limits assumed, looked up): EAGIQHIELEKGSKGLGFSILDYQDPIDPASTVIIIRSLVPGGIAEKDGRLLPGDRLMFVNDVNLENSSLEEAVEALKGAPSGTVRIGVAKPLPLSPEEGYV

T7: GRIP1_2, Q9Y3R0
T7 sequence (Q9Y3R0 145-248, limits assumed, looked up): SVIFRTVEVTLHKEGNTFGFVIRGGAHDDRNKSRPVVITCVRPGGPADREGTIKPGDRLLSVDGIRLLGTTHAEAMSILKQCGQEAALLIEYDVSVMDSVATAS

T8: GRIP1_7, Q9Y3R0
T8 sequence (Q9Y3R0 999-1096, limits assumed, looked up): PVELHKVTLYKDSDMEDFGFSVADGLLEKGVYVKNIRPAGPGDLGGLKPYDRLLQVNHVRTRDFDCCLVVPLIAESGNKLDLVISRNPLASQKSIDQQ

T9: RADIL, Q96JH8
T9 sequence (Q96JH8 971-1071, limits assumed, looked up): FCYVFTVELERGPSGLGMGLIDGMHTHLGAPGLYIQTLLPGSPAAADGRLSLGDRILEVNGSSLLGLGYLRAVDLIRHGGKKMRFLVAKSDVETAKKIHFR

T10: LRRC7, Q96NW7
T10 sequence (Q96NW7 1440-1537, limits assumed, looked up): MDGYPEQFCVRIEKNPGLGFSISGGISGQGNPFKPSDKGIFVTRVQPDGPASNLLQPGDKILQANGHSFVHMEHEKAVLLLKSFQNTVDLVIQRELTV

B1: SLC22A3, O75751 (peptide)
chain: KKTPVSRSHL
B2: RCN2, Q14257 (peptide)
chain: HDDYFYHDEL

Each binder was assayed against T1, MPP7, Q5T2T1 (assay: holdup assay). Details: plain residues with an end cap or a label only (N-terminal biotin on a linker: ado-ado).
Set-up: key: below the threshold = too weak to quantify, mostly under pKd 3.1 to 4

**Q.** With B1 as the binder, how does the pKd read?
**A.** below the threshold

**Q.** For B2, which pKd is on record?
**A.** below the threshold

The binders below were run against T2, MPDZ_10, O75970 (assay: holdup assay). Details: plain residues with an end cap or a label only (N-terminal biotin on a linker: ado-ado).
Set-up: key: below the threshold = too weak to quantify, mostly under pKd 3.1 to 4

**Q.** B1 was tested. Which pKd did it give?
**A.** below the threshold

**Q.** Which pKd does the source give for B2 here?
**A.** below the threshold

The binders below were run against HTRA2, O43464 (assay: holdup assay). Details: plain residues with an end cap or a label only (N-terminal biotin on a linker: ado-ado).
Set-up: key: below the threshold = too weak to quantify, mostly under pKd 3.1 to 4

HTRA2, O43464, sequence (O43464 355-458): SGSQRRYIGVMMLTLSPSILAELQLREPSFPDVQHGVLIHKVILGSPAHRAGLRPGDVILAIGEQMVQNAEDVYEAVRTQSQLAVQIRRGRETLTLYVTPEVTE

**Q.** How did the pKd turn out when B1 was run?
**A.** below the threshold

**Q.** Which pKd does the source give for B2 here?
**A.** below the threshold

These binders were tested against MAGI2_3, Q86UL8 (assay: holdup assay). Details: plain residues with an end cap or a label only (N-terminal biotin on a linker: ado-ado).
Set-up: key: below the threshold = too weak to quantify, mostly under pKd 3.1 to 4

MAGI2_3, Q86UL8, sequence (Q86UL8 600-682): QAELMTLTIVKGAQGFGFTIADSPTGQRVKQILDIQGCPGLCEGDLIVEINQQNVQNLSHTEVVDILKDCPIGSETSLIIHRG

**Q.** B1 was tested. Which pKd did it give?
**A.** below the threshold

**Q.** For B2, which pKd is on record?
**A.** below the threshold

What follows are binders tested against FRMPD4, Q14CM0 (assay: holdup assay). Details: plain residues with an end cap or a label only (N-terminal biotin on a linker: ado-ado).
Set-up: key: below the threshold = too weak to quantify, mostly under pKd 3.1 to 4

FRMPD4, Q14CM0, sequence (Q14CM0 67-160): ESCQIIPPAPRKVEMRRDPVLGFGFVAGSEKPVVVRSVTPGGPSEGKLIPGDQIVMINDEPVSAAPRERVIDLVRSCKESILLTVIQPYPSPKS

**Q.** Which pKd does the source give for B1 here?
**A.** 3.58

**Q.** Which pKd does the source give for B2 here?
**A.** 3.94

These binders were tested against FRMPD2_3, Q68DX3 (assay: holdup assay). Details: plain residues with an end cap or a label only (N-terminal biotin on a linker: ado-ado).
Set-up: key: below the threshold = too weak to quantify, mostly under pKd 3.1 to 4

FRMPD2_3, Q68DX3, sequence (Q68DX3 1073-1166): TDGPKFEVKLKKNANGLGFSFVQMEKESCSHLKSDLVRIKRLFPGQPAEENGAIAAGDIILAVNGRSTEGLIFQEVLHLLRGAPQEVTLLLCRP

**Q.** Which pKd does the source give for B1 here?
**A.** below the threshold

**Q.** With B2 as the binder, how does the pKd read?
**A.** below the threshold

The binders below were run against DLG4_3, P78352 (assay: holdup assay). Details: plain residues with an end cap or a label only (N-terminal biotin on a linker: ado-ado).
Set-up: key: below the threshold = too weak to quantify, mostly under pKd 3.1 to 4

DLG4_3, P78352, sequence (P78352 306-403): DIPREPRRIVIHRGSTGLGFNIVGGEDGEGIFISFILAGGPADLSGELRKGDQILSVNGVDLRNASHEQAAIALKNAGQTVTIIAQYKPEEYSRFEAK

**Q.** For B1, which pKd is on record?
**A.** below the threshold

**Q.** B2 was tested. Which pKd did it give?
**A.** 3.53

What follows are binders tested against PTPN3, P26045 (assay: holdup assay). Details: plain residues with an end cap or a label only (N-terminal biotin on a linker: ado-ado).
Set-up: key: below the threshold = too weak to quantify, mostly under pKd 3.1 to 4

PTPN3, P26045, sequence (P26045 505-587): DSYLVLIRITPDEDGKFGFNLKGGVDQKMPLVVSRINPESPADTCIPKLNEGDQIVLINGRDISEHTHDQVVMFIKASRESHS

**Q.** B1 was tested. Which pKd did it give?
**A.** below the threshold

**Q.** Which pKd does the source give for B2 here?
**A.** below the threshold

The binders below were run against T3, RAPGEF6, Q8TEU7 (assay: holdup assay). Details: plain residues with an end cap or a label only (N-terminal biotin on a linker: ado-ado).
Set-up: key: below the threshold = too weak to quantify, mostly under pKd 3.1 to 4

**Q.** Which pKd does the source give for B1 here?
**A.** below the threshold

**Q.** For B2, which pKd is on record?
**A.** below the threshold

These binders were tested against T4, DFNB31_2, Q9P202 (assay: holdup assay). Details: plain residues with an end cap or a label only (N-terminal biotin on a linker: ado-ado).
Set-up: key: below the threshold = too weak to quantify, mostly under pKd 3.1 to 4

**Q.** For B1, which pKd is on record?
**A.** below the threshold

**Q.** For B2, which pKd is on record?
**A.** below the threshold

Each binder was assayed against NHERF4_1, Q86UT5-2 (assay: holdup assay). Details: plain residues with an end cap or a label only (N-terminal biotin on a linker: ado-ado).
Set-up: key: below the threshold = too weak to quantify, mostly under pKd 3.1 to 4

NHERF4_1, Q86UT5-2, sequence (Q86UT5 other isoform, or with tags, fused parts or gaps): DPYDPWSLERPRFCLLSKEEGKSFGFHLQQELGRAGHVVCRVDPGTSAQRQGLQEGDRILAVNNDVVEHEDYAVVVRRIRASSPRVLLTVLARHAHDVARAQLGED

**Q.** How did the pKd turn out when B1 was run?
**A.** 3.94

**Q.** With B2 as the binder, how does the pKd read?
**A.** 4.1

Each binder was assayed against CASK, O14936 (assay: holdup assay). Details: plain residues with an end cap or a label only (N-terminal biotin on a linker: ado-ado).
Set-up: key: below the threshold = too weak to quantify, mostly under pKd 3.1 to 4

CASK, O14936, sequence (O14936 487-570): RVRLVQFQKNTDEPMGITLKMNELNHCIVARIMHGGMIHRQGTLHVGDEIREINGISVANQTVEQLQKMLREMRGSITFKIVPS

**Q.** B1 was tested. Which pKd did it give?
**A.** below the threshold

**Q.** For B2, which pKd is on record?
**A.** below the threshold

What follows are binders tested against LDB3, O75112 (assay: holdup assay). Details: plain residues with an end cap or a label only (N-terminal biotin on a linker: ado-ado).
Set-up: key: below the threshold = too weak to quantify, mostly under pKd 3.1 to 4

LDB3, O75112, sequence (O75112 1-94): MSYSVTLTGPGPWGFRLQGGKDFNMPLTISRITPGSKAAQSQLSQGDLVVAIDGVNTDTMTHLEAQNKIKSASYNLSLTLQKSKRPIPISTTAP

**Q.** How did the pKd turn out when B1 was run?
**A.** below the threshold

**Q.** For B2, which pKd is on record?
**A.** 4.09

The binders below were run against GRIP2_6, Q9C0E4 (assay: holdup assay). Details: plain residues with an end cap or a label only (N-terminal biotin on a linker: ado-ado).
Set-up: key: below the threshold = too weak to quantify, mostly under pKd 3.1 to 4

GRIP2_6, Q9C0E4, sequence (Q9C0E4 648-740): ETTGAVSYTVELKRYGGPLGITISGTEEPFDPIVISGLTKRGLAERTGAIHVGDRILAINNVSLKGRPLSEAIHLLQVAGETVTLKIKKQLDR

**Q.** How did the pKd turn out when B1 was run?
**A.** below the threshold

**Q.** Which pKd does the source give for B2 here?
**A.** below the threshold

These binders were tested against MAGI2_5, Q86UL8 (assay: holdup assay). Details: plain residues with an end cap or a label only (N-terminal biotin on a linker: ado-ado).
Set-up: key: below the threshold = too weak to quantify, mostly under pKd 3.1 to 4

MAGI2_5, Q86UL8, sequence (Q86UL8 915-1017): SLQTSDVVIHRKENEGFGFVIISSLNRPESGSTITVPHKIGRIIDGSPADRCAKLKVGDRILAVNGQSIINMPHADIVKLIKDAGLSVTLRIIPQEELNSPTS

**Q.** Which pKd does the source give for B1 here?
**A.** below the threshold

**Q.** How did the pKd turn out when B2 was run?
**A.** below the threshold

Each binder was assayed against GIPC2, Q8TF65 (assay: holdup assay). Details: plain residues with an end cap or a label only (N-terminal biotin on a linker: ado-ado).
Set-up: key: below the threshold = too weak to quantify, mostly under pKd 3.1 to 4

GIPC2, Q8TF65, sequence (Q8TF65 112-203): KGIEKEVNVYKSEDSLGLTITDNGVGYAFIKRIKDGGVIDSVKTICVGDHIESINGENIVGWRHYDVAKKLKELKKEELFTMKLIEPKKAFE

**Q.** With B1 as the binder, how does the pKd read?
**A.** below the threshold

**Q.** For B2, which pKd is on record?
**A.** below the threshold

Each binder was assayed against T5, MPP6, Q9NZW5 (assay: holdup assay). Details: plain residues with an end cap or a label only (N-terminal biotin on a linker: ado-ado).
Set-up: key: below the threshold = too weak to quantify, mostly under pKd 3.1 to 4

**Q.** With B1 as the binder, how does the pKd read?
**A.** below the threshold

**Q.** B2 was tested. Which pKd did it give?
**A.** 3.74

Each binder was assayed against T6, MPDZ_5, O75970 (assay: holdup assay). Details: plain residues with an end cap or a label only (N-terminal biotin on a linker: ado-ado).
Set-up: key: below the threshold = too weak to quantify, mostly under pKd 3.1 to 4

**Q.** B1 was tested. Which pKd did it give?
**A.** below the threshold

**Q.** With B2 as the binder, how does the pKd read?
**A.** below the threshold

These binders were tested against T7, GRIP1_2, Q9Y3R0 (assay: holdup assay). Details: plain residues with an end cap or a label only (N-terminal biotin on a linker: ado-ado).
Set-up: key: below the threshold = too weak to quantify, mostly under pKd 3.1 to 4

**Q.** How did the pKd turn out when B1 was run?
**A.** below the threshold

**Q.** For B2, which pKd is on record?
**A.** below the threshold

These binders were tested against T8, GRIP1_7, Q9Y3R0 (assay: holdup assay). Details: plain residues with an end cap or a label only (N-terminal biotin on a linker: ado-ado).
Set-up: key: below the threshold = too weak to quantify, mostly under pKd 3.1 to 4

**Q.** With B1 as the binder, how does the pKd read?
**A.** below the threshold

**Q.** How did the pKd turn out when B2 was run?
**A.** below the threshold

Each binder was assayed against MAST1, Q9Y2H9 (assay: holdup assay). Details: plain residues with an end cap or a label only (N-terminal biotin on a linker: ado-ado).
Set-up: key: below the threshold = too weak to quantify, mostly under pKd 3.1 to 4

MAST1, Q9Y2H9, sequence (Q9Y2H9 962-1065): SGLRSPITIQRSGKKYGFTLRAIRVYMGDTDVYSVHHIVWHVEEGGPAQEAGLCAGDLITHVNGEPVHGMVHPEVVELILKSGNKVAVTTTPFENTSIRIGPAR

**Q.** How did the pKd turn out when B1 was run?
**A.** below the threshold

**Q.** How did the pKd turn out when B2 was run?
**A.** 4.35

These binders were tested against T9, RADIL, Q96JH8 (assay: holdup assay). Details: plain residues with an end cap or a label only (N-terminal biotin on a linker: ado-ado).
Set-up: key: below the threshold = too weak to quantify, mostly under pKd 3.1 to 4

**Q.** With B1 as the binder, how does the pKd read?
**A.** below the threshold

**Q.** For B2, which pKd is on record?
**A.** 3.5

These binders were tested against IL16_1, Q14005 (assay: holdup assay). Details: plain residues with an end cap or a label only (N-terminal biotin on a linker: ado-ado).
Set-up: key: below the threshold = too weak to quantify, mostly under pKd 3.1 to 4

IL16_1, Q14005, sequence (Q14005 210-306): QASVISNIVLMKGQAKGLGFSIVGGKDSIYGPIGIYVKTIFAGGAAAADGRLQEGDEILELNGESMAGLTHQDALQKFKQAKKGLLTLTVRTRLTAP

**Q.** Which pKd does the source give for B1 here?
**A.** below the threshold

**Q.** With B2 as the binder, how does the pKd read?
**A.** below the threshold

The binders below were run against Inadl_4, Q8NI35 (assay: holdup assay). Details: plain residues with an end cap or a label only (N-terminal biotin on a linker: ado-ado).
Set-up: key: below the threshold = too weak to quantify, mostly under pKd 3.1 to 4

Inadl_4, Q8NI35, sequence (Q8NI35 547-651): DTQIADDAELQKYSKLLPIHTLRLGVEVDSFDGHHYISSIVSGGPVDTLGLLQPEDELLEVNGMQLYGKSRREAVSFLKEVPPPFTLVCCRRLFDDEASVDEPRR

**Q.** For B1, which pKd is on record?
**A.** below the threshold

**Q.** How did the pKd turn out when B2 was run?
**A.** below the threshold

Each binder was assayed against T10, LRRC7, Q96NW7 (assay: holdup assay). Details: plain residues with an end cap or a label only (N-terminal biotin on a linker: ado-ado).
Set-up: key: below the threshold = too weak to quantify, mostly under pKd 3.1 to 4

**Q.** With B1 as the binder, how does the pKd read?
**A.** below the threshold

**Q.** For B2, which pKd is on record?
**A.** below the threshold

These binders were tested against Inadl_2, Q8NI35 (assay: holdup assay). Details: plain residues with an end cap or a label only (N-terminal biotin on a linker: ado-ado).
Set-up: key: below the threshold = too weak to quantify, mostly under pKd 3.1 to 4

Inadl_2, Q8NI35, sequence (Q8NI35 238-335): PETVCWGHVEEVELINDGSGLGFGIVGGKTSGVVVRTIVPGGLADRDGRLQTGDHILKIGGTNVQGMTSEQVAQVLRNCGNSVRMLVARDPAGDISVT

**Q.** Which pKd does the source give for B1 here?
**A.** below the threshold

**Q.** Which pKd does the source give for B2 here?
**A.** below the threshold

What follows are binders tested against PDZRN4_1, Q6ZMN7 (assay: holdup assay). Details: plain residues with an end cap or a label only (N-terminal biotin on a linker: ado-ado).
Set-up: key: below the threshold = too weak to quantify, mostly under pKd 3.1 to 4

PDZRN4_1, Q6ZMN7, sequence (Q6ZMN7 213-318): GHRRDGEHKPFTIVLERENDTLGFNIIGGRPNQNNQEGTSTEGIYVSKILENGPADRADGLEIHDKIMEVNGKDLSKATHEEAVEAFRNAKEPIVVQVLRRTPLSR

**Q.** Which pKd does the source give for B1 here?
**A.** 3.66

**Q.** How did the pKd turn out when B2 was run?
**A.** below the threshold

What follows are binders tested against MAGI3_2, Q5TCQ9 (assay: holdup assay). Details: plain residues with an end cap or a label only (N-terminal biotin on a linker: ado-ado).
Set-up: key: below the threshold = too weak to quantify, mostly under pKd 3.1 to 4

MAGI3_2, Q5TCQ9, sequence (Q5TCQ9 398-503): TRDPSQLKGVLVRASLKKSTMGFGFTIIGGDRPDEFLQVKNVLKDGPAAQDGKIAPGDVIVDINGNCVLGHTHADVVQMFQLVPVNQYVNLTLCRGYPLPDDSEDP

**Q.** How did the pKd turn out when B1 was run?
**A.** below the threshold

**Q.** For B2, which pKd is on record?
**A.** below the threshold
